# PMC12047801 (PLOS Pathogens, 2025)
# Tests used:
# [1] = target: USP7 (endogenous in SLK.iBAC-GFP cells) (human (endogenous in SLK.iBAC-GFP), UniProt Q93009 1-1102); test: cell-based or functional assay
# [2] = target: T1, Recombinant USP7-TRAF protein (human, UniProt Q93009 1-208); test: SPR; Biacore T200; USP7-TRAF immobilised on a CM5 chip by amine coupling to about 8000 RU; gradient concentrations of peptides injected at 30 μL/min; running buffer 0.05% (v/v) Tween 20 in PBS; conditions: both partners purified
# T1 construct: also called USP7-TRAF domain
# T1 sequence (Q93009 1-208): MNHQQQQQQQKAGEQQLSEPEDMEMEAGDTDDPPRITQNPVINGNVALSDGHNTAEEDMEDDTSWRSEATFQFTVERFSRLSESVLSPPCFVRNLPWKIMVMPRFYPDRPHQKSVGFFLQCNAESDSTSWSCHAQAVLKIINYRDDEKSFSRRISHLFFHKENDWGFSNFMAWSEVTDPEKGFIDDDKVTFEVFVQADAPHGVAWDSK
# [3] = target: T1, Recombinant USP7-TRAF protein; test: SPR; conditions: both partners purified
# [4] = target: T2, GST-USP7-murine TRAF WT (murine, UniProt Q6A4J8 1-208); test: pull-down; conditions: both partners purified
# T2 construct: also called GST-mUSP7-TRAF WT; murine USP7-TRAF
# T2 sequence (Q6A4J8 1-208): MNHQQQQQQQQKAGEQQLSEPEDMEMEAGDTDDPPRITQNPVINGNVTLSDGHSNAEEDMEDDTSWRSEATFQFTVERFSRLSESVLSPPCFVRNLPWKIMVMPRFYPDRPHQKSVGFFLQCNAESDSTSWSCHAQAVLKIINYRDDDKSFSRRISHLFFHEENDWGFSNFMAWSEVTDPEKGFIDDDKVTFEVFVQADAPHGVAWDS
# Sequence of USP7 (endogenous in SLK.iBAC-GFP cells) (Q93009 whole entry): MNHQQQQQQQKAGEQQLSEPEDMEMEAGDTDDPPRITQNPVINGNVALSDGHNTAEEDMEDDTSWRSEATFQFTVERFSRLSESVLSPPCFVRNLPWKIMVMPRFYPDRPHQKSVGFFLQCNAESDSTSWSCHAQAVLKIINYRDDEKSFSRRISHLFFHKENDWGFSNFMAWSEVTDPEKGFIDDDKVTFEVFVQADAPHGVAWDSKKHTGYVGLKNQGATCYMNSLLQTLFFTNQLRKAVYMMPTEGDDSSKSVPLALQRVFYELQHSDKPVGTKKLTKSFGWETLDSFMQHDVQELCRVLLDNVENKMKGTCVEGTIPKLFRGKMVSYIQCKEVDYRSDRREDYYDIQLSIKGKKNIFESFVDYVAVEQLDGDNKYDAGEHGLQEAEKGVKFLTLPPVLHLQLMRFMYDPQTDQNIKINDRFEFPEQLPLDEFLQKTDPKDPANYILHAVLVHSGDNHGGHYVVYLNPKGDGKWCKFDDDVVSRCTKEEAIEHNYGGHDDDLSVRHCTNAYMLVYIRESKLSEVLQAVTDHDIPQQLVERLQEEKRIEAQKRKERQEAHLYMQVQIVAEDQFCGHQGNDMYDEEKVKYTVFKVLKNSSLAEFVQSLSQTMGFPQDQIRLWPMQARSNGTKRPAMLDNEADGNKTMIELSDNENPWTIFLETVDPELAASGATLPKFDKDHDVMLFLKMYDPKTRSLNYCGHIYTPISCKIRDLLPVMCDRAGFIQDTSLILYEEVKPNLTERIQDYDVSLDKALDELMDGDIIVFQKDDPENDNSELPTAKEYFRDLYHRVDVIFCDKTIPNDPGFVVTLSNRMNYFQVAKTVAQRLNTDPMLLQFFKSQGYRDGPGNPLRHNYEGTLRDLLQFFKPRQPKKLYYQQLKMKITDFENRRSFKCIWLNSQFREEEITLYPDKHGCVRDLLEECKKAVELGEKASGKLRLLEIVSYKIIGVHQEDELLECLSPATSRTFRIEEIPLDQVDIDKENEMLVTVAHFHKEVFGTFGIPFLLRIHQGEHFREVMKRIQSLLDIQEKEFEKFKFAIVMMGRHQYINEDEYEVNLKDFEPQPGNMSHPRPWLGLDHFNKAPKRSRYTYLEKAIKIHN
binder,measurement,setting,value
Ac-YGRKKRRQRRRGGVNQSASQSSN-NH2 [p8 fused to an N-terminal Tat(47-57) peptide via a GG linker],IC50 of inhibition of KSHV lytic reactivation in SLK.iBAC-GFP cells (blocks OTUD4-USP7),[1],52.6 µM
Ac-EVADEDNSEI-NH2 (also called peptide p2) [p2],Kd,[2],9.02 µM
Ac-VNQSASQSSN-NH2 (also called peptide p8; human-derived p8) [p8],Kd,[3],3.16 µM
Ac-YGRKKRRQRRRGGVSQSPSQNSN-NH2 (also called murine-derived p8) [p8-m],binding result,[4],binds
